Target: scFv 10-94 P (murine)
Assay: SPR

**Q.** Which KD1 (bivalent model) does the source give for “Protein L (PpL), free (from UniProt Q51918 1-992) (natural protein)” here?
**A.** Its KD1 (bivalent model) is 7.5 nM.

From article PMC4966575
